41 sequences from the nanobody polyreactivity screen of Harvey et al. (2022) can be followed below.

The data set is described as follows: yeast display, Sf9 membrane polyspecificity reagent, FACS + sequencing; frameworks hold sequencing errors. A digest of the protocol: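 A synthetic nanobody library was expressed on Saccharomyces cerevisiae BJ5465 by galactose induction for 36–48 hours. The library was stained for 1 hour at 4 °C with 10% biotinylated, detergent-solubilized Sf9 membrane reagent and enriched with streptavidin microbeads before FACS. Low and high (top ~1%) gates were set on anti-HA fluorescence for expression and streptavidin fluorescence for reagent binding, and each polyreactivity label reflects the gate of origin.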
Consider “QVQLVESGGGLVQAGGSLRLSFAASGRTFYINDMGWYRQAPGKERELVAAITWRGGSTYYADSVKGRFTISRDNAMNTVYLQMNSLKPEDTAVYYCAAYISLYWWYDYWGQGTQVTVSS”, for which the “polyreactivity (PSR sort gate)” value is reported as “low polyreactivity”.
The result for “QFQLVESGGGLVQAGGSLRLSCAASGYTFGQYDMGWYRQAPGKERELVAAISTGGVSTYYADSVKGRFTISRDNAKNTVYLQMNSLKPEDTAVYYCATTPYVRYDYWGQGTQVTVSS” reads “low polyreactivity”; that for “QVQLVESGGGLVQAGGSLRLSCAASGFIFYPNAMGWYRQAPGKERELVAVITGGGSTYYADSVKGLFTISRDNAKNTVYLQMNSLKPEDPAVYYCAARTLRAGYRASGVRRDYWRQGTQVTVSS”, “high polyreactivity”; that for “QVQLVESGGGLVQAGGSLRLSCAASGNTFVFYTMGWSRQAPGKERELVAAITSSGVRTSYADSVKGRFSISRDNAKNTVYLQMNSLKPEDTAVYYCAASLRASPSFGYWGQGTQVTVSS”, “high polyreactivity”.
Then “QVQLVESGGGLVQAGGSLRLSCAASGSIGYMGWYRQAPGKERELVAFITSSGGGTYYADSVKGRFTISRDNAKNTVYLQMNSLKPEDTAVYYCATKSSAGYDYWGQGTQVTVSS”, with “low polyreactivity”; and “QVQLVESGGGLVQAGGSLRLSCAASGRTFGSYAMGWYRQAPGKEREFVASITGATTNYADSVKGRFTISRDNAKNTVYLQMNSLKQEDTAVYYCATDVGFGRKQRPHRPGYGYWGQGTQVTVSS”, with “low polyreactivity”.
The result for “QVQLVESGGGLVQAGGSLRLSCAASGSTFGLNAMGWYRQAHGKERDVVAAITRSDITNYADSVKGRFTISRDNAKNTVYLQMNSLKPEDTAVYYCNKTPDRHRRYFGYGYWGQGTQVTVSS” reads “low polyreactivity”.
“LVQLVESGGGLVQAVGSLRLSCAASGFTIYGNAMGWYRRAPGKERELVAAITWRGGSTYYADSEKGRFTISRDNAKNTVYLQMNSLKPEDTAVYYCNALKGRPVRSYLASPSYRYDYWGQGTQVTVSS”: the “polyreactivity (PSR sort gate)” value is on record as “high polyreactivity”.
The result for “QVQLVESGGGLVQAGGSLRLSCAASGGIFKAYAMGWYRQAPGKEREFFAAITSSGGRTSYADSVKGRFTISRDNAKNNVYLQKNSLKQEDTAVYYCAAYGDGIVNSWDSYSEMDYWGQGTQVTVSS” reads “low polyreactivity”; that for “QVQLVESGGGLVQAGGSLRLSCAASGRNFPYYAMGWSRQAPGKERELVADISSSGGRTYYADSVKGRFTTSRDNAKNTVYLQMNSLKPEDTAVYYCNAESTYYPSGEDYWGQGTQVTVSS”, “low polyreactivity”.
The result for “QVQLVESGGGLVQAGGSLRLSCAASGFTFATNAMGWYRQAPGTERELVAAISSRGGSTYYADSVKGRFTISRDNAKNTVYLQMNSLKPEDTAVYYCNAYRRLGGYDYWGQGTQVTVSS” reads “high polyreactivity”; that for “QVQLVESGGGLVQAGGSLRLSCAASGIIFGTYAMGWYRQAPGKERELVAAISSGGRTYYADSVKGRFTISRDNAKNTVYLQMNSLKPEDTAVYYCNRPPWSRGSNYWGQGTQVTVSS”, “high polyreactivity”; that for “QVQLQESGGGLVQAGGSLRLSCAASGTISQEDWKGRYRQAPGKEREFVAAIGLGSNTNYADSLKGRFTISRDNAKNSVYLQMNSLKPEDTAVYYCAVSVWQYSDHVYRGQGTQVTVSS”, “low polyreactivity”.
For “QVQLVESGGGLDQAGGSLRLSCAASGFTFWRYAMGWYRQAPGKERELVAAISWSGGSTYYADSVKGRFTISRDNAKNTVYLQMNSLKPEDTAVYYCTAQYGSRSYRYGYWGQGTQVTVSS”, the “polyreactivity (PSR sort gate)” value is “high polyreactivity”.
Then “QVQLVESGGGLLQAGGSLRLSCAASGSTFDTYDMGWYRQAPGKERELVAARNSGGDTNYADSVKGRFTISRDNAKNTVYLQMNSLKPEDTAVYYCAVVTYSYPNWYGYWGPGTQVTVSS”, with “high polyreactivity”; and “QVQLVESGGGLVQAGGSLLLSCAASGSTFYYNAMGWYRQATGKERELVARISRSGGSTYADSVKGRFTISRDNAKNTVYLQMNSLKPEDTAVYYCNADAYGTPEFTSYAVRYDYWGQGTQVTVSS”, with “low polyreactivity”; and “QVQLVESGGGLVQAGGSLRLSCAASGSTFKGYTMGWYRQAPGKEREFVATITFSDGSTYYADCVKGRFTISRDNAKNTVYLQMNSLKPAVTAVYYCNVDSPIGYDYWGQGTQVTVSS”, with “low polyreactivity”.
“QVQLVESGGGLVQAGGSLRLSCAASGSTFTYNDMGWYRQAPGKERELVARITFSSGRTYYADSVKGRFTISRDNAKNTVYLQMNSLKPEDTAVYYCARQWYWRPGYYIGQGYEYWGQGTQVTVSS”: the “polyreactivity (PSR sort gate)” value is listed as “low polyreactivity”.
Then “QVQLVESGGGLVQAGGSLRLSCAASGRIFGVYAMGWSRQAPGKERELGAGITDRGGRTYYADSVKGRFTISRDNAKNTVYLQMNSLKPEDTAVYYCNAGSLHRRYYYEGDYWGQGTQVTVSS”, with “high polyreactivity”.
The result for “QVQLVESGGGLVQAGGSLRLSCAASGSTFTPNAMGSYRQAPGKERELDASISTTGGNTYYADSVKGRFTISRDNAKNTVYLQMNSLKPEDTAVYYCNAVRSVYLYGYIYGVDYWGQGTQVTVSS” reads “low polyreactivity”.
Consider “QVQLVESGGGLVQAGGSLRLSCAASGSTFSSYVMGWYRQAPGKERELVAAISSIGGSTYYADSVKGRFTISRDNAKNTVYLQMNSLKPEDTAVYYCNADYVIYFGLYEYWGQGTQVTVSS”, for which the “polyreactivity (PSR sort gate)” value is listed as “low polyreactivity”.
Then “QVQLVESGGGLVQAGGSLRLSYAASGFTFTGYALGWYRQAPGKARELVAAISQSGGSTYADSVKGRFTISRDNAKNTVYLQMNSLKPEDTAVYYCAAVWFLLTEYDYWGQGTQVTVSS”, with “low polyreactivity”; and “QVQLVESGGGLVQAGGSLRLSCAASGSIFFEYAMGWYRQAPGKERELVASINRGGGSTYYADSVKGRFTISRDNAKNTVYLQMNSLIPEDTAVYYCAAQCKYRQSYLDYYWGQGTQVTVSS”, with “low polyreactivity”.
Then “QVQLVEKGGGLVQAGGSLRLSCAASGYIFRFYTKRWYRQAPGKERELVASITRSGGSTYYADSVKGRFTFSRENAKNTVYLQKNSLKPEDTAVYYCNARKTVGMDYWGQGTQVTVSS”, with “low polyreactivity”; and “QVQLVESGGGLVQAGGSLRLSCAASGSIISSYAMGWYRKAPGKETELLAVITRSGGSTYYADSVKGRFTISRDNAKNTVYLQMKSLKPVDTAVYYCNAQPTRIKLPSYDYWGQGTQVTVST”, with “high polyreactivity”; and “QVQLVESGGGLVQAGGILRLSCAASGIIFNTNFMGWYRQAPGKERELVAAISRTNYADSVKGRFTISRDNAKNNVFLEMNSLHPEDTSVYDCIVELQYGRPGGQEFDYWGQGSQVTVSS”, with “low polyreactivity”.
The result for “QVQLVESGGGLVQAGGSLRLSCGASGNTINVNTMGWYRQGPGKERELVAAINSGDNTNYADSVKGRFTISRDNAKNTVYLQMNSLNPVDTAVYSCAAQDYARGVVPGRRAIGYWGQCTQVTVSS” reads “high polyreactivity”; that for “QVQLVESGGGLVQAGGSLRLSCAASGRTFIVYAMGWYRQAPGKERELVAGITRGSTNYADSVKGRFTISRDNAKNTVYLQMNSLKPEDTAVYYCAARSSRRGPISEGDYWGQGTQVTVSS”, “high polyreactivity”; that for “QVQLVESGGGLVQAGGSLRLSCDASGNTFVRYAMGWFRQAPGKERELVAGISASGGSTSYADSVKGRFTISRDNAKNTVYLQMNSLKPEDTAVYYCARNYWLYSSSYDSWGQGTQVTVSS”, “high polyreactivity”.
On to “QVQLQESGGGLVQAGGSLGCAASGNISTRSEMGWYRQAPGKEREFVATINSGGITNYADSVKGRFTISRDNAKNTVYLRMNSLKPEDTAVYYRAVYGDFSDPYDYWGQGTQVTVSS”, for which the “polyreactivity (PSR sort gate)” value is “low polyreactivity”.
The result for “QVQLVESGGGLVQAGGSLRLSCAASGRIFYVYAMGWYRQAPGKERELVAAISRGGSTNYADSVKGRFTISRDNAKNTVYLQMNSLKPEDTAVYYCAASSLPHYSYRHSYLYEYWGQGTQVTVSS” reads “low polyreactivity”.
Then “QVQLVESGGGLVQAGGSLRLSCAASGSTRGYAMGWYRQAPGKEREMVAAIRSSGSTNYADSVKGRFTISRDNAKNTVYLQMNSLKPEDTAVYFCATDGHYLYSWYKYDYWGQGTQVTVSS”, with “low polyreactivity”; and “QVQLVESGGGLVQAGGSLRLSCAASGRTFSSYVMGWYRQAPGKERELVASISRRGGSTYYADSVKGRFTISRDNAKNTVYLQMNSLKPEDTAVYYCNADLRGYGRGTDQYTFDYWGQGTQVTVSS”, with “high polyreactivity”.
Regarding “QVQLVESGGGLVQAGGSLRLSCAASGFTFGHYAMGWYRQAPGKERELVAAIRWSGGSTYYADSVKGRITISRDHAKNTVYLQMNSLKPEDTAVYYCGARRFDGYDYDYWGQGTQVTESS”, the “polyreactivity (PSR sort gate)” value is reported as “low polyreactivity”.
“QVQLVESGGGLVQAGGSLRLSCAASGLIFRRYAMGRNRQAHGKERELVAAISRSGGSTYYADSVKGRFTISRDNEKNTVYLQMNSLKPEDTAVYYCAADYAPVFWGDYKYDYWGQGTQVTVSS”: the “polyreactivity (PSR sort gate)” value is “high polyreactivity”.
The result for “QVHLVESGGGLLQAGGSLRLSCAASGSIFAYNAMGWYREAPRKERELVASITNGGSTYYADSVKGRFTISRYNAKNSVYLQMKSLKPEDTAVYYCNTDFDGYSVGYDGYWGQGTQVTVSA” reads “low polyreactivity”; that for “QVQLVESGGGLVQAGGSLRLSCAASGFTFSRKAMGWYRQAPGKERELVASITRSGASTYYADSVKGRFTISRDNAKNTVYLQMNSLKPEDTAVYYCNAYYVALPPNMDYWGQGTQVTLSS”, “high polyreactivity”.
The result for “QVQLVESGGGLVQAGGSLRVSCAASGFTFVGTAMGWYRQAPGKERELVAAITWSGGRTYYADSVKGRFTISRDKAKNTVYLQMNSLTPEDTAVYYCATRWRGRMDYWGQGTQVTVSS” reads “high polyreactivity”; that for “QVQLVESGGGLVQAGGSLRLSSAASGRTLAGYAMGWYRQAPGKERELVAAISRSGGRTYYADSVKGRFTISRDNAKNSVYLQMNSLKPEDTAVYYCAADTRIEVYYWGQGTQVTVSS”, “high polyreactivity”; that for “QVQLVESGGGLVQAGGSLRLSCAASGRIFARYAMGWYRQAPGKERELVAAISRGGSTKYADSVKGRFTISRDNAKNTVYLQMNSLKPEDTAVYYCARQLWGSPYGAYYAGDYWGQGTQVTVSS”, “low polyreactivity”.
Then “QDQLVESGVGLVQAGGSLRLSCAASGSIFHGNAMGWYRQAPGKERELVATISSGGSTYYADSVKGRFTISRDNAKNTVYLQMNSLKPEDTAVYYCAAERFWPYKSYYWGQGTQVTVSS”, with “low polyreactivity”.
